Source: patent publication US20060039927A1 (US Dept. of Health and Human Services, published 2006)

B1: sgp130-Fc (R&D Systems), a fusion protein of sgp130 and human IgG Fc (Fc fusion)
chain: ELLDPCGYISPESPVVQLHSNFTAVCVLKEKCMDYFHVNANYIVWKTNHFTIPKEQYTIINRTASSVTFTDIASLNIQLTCNILTFGQLEQNVYGITIISGLPPEKPKNLSCIVNEGKKMRCEWDGGRETHLETNFTLKSEWATHKFADCKAKRDTPTSCTVDYSTVYFVNIEVWVEAENALGKVTSDHINFDPVYKVKPNPPHNLSVINSEELSSILKLTWTNPSIKSVIILKYNIQYRTKDASTWSQIPPEDTASTRSSFTVQDLKPFTEYVFRIRCMKEDGKGYWSDWSEEASGITYEDRPSKAPSFWYKIDPSHTQGYRTVQLVWKTLPPFEANGKILDYEVTLTRWKSHLQNYTVNATKLTVNLTNDRYLATLTVRNLVGKSDAAVLTIPACDFQATHPVMDLKAFPKDNMLWVEWTTPRESVKKYILEWCVLSDKAPCITDWQQEDGTVHRTYLRGNLAESKCYLITVTPVYADGPGSPESIKAYLKQAPPSKGPTVRTKKVGKNEAVLEWDQLPVDVQNGFIRNYTIFYRTIIGNETAVNVDSSHTEYTLSSLTSDTLYMVRMAAYTDEGGKDGPEFTFTTPKFAQGEIE
notes: extracellular domain; Immobilized on the CM5 chip in the BIAcore work; the results text calls it sgp130; also called immobilized sgp130; not shown: human IgG Fc

How the values were obtained:
[1] = target: T1, maltose binding protein (MBP), control (UniProt P0AEX9 27-392 = MBP); assay: surface plasmon resonance (BIAcore 2000), sgp130 immobilized at 1.5 ng/mm2
[2] = target: B1; assay: SPR Kd of this filing against a previously reported Kd (1.7 nM) of the human IL-6/sIL-6Rα complex
[3] = target: B1; assay: SPR (BIAcore 2000), sgp130-Fc immobilized on CM5, MBPvIL-6 in flow, 1:1 Langmuir binding model
[4] = target: B1; assay: SPR (BIAcore 2000), equilibrium data, Scatchard analysis, sgp130-Fc immobilized
[5] = target: T1, maltose binding protein (MBP), control; assay: indirect ELISA, receptor immobilized
Experimental: Reactions were visualized by using tetramethoxybenzene peroxidase substrate (Kirkegaard & Perry Laboratories, Gaithersburg, Md.), followed by 2N H2SO4. The interference of vIL-6 binding to sgp130 by mAbs was analyzed in a similar manner. […] The mixture was applied to the plates coated with sgp130 (2 μg/ml) after SuperBlock treatment. The protein complex was detected by streptavidin-HRP (1:1000; Kirkegaard & Perry Laboratories), and the peroxidase activity was visualized by tetramethoxybenzene peroxidase substrate, followed by 2N H₂SO₄. Plates were read at 450 nm with λ correction at 630 m using a microplate reader.

## B1
[1]
  binding result: no binding

B2: MBPvIL-6 (fusion of maltose binding protein, a factor Xa cleavage site and amino acids 22-204 of KSHV vIL-6) (ligand)
chain: GKLPDAPEFEKDLLIQRLNWMLWVIDECFRDLCYRTGICKGILEPAAIFHLKLPAINDTDHCGLIGFNETSCLKKLADGFFEFEVLFKFLTTEFGKSVINVDVMELLTKTLGWDIQEELNKLTKTHYSPPKFDRGLLGRLQGLKYWVRHFASFYVLSAMEKFAGQAVRVLNSIPDVTPDVHDK
modifications: biotinylated in the sgp130 interference ELISA (sites not given)
notes: range 22-204; also called recombinant vIL-6; full length MBPvIL-6; not shown: factor Xa cleavage site and vector linker between MBP and vIL-6
[2]
  fold lower binding affinity than human IL-6/sIL-6Rα complex to gp130: 1000 fold
[3]
  Kd: 2200 nM
  koff: 0.0022 s⁻¹
  kon: 980 M⁻¹ s⁻¹
[4]
  Kd: 2500 nM

B3: purified recombinant human sIL-6Rα (R&D Systems) (receptor)
chain: LAPRRCPAQEVARGVLTSLPGDSVTLTCPGVEPEDNATVHWVLRKPAAGSHPSRWAGMGRRLLLRSVQLHDSGNYSCYRAGRPAGTVHLLVDVPPEEPQLSCFRKSPLSNVVCEWGPRSTPSLTTKAVLLVRKFQNSPAEDFQEPCQYSQESQKFSCQLAVPEGDSSFYIVSMCVASSVGSKFSKTQTFQGCGILQPDPPANITVTAVARNPRWLSVTWQDPHSWNSSFYRLRFELRYRAERSKTFTTWMVKDLQHHCVIHDAWSGLRHVVQLRAQEEFGQGEWSEWSPEAMGTPWTESRSPPAENEVSTPMQALTTNKDDDNILFRDSANATSLPVQDSSSVPLP
notes: extracellular domain; Bought; also called soluble IL-6Rα
[5]
  binding result: no binding

B4: purified recombinant human sgp130 (R&D Systems) (receptor)
chain: ELLDPCGYISPESPVVQLHSNFTAVCVLKEKCMDYFHVNANYIVWKTNHFTIPKEQYTIINRTASSVTFTDIASLNIQLTCNILTFGQLEQNVYGITIISGLPPEKPKNLSCIVNEGKKMRCEWDGGRETHLETNFTLKSEWATHKFADCKAKRDTPTSCTVDYSTVYFVNIEVWVEAENALGKVTSDHINFDPVYKVKPNPPHNLSVINSEELSSILKLTWTNPSIKSVIILKYNIQYRTKDASTWSQIPPEDTASTRSSFTVQDLKPFTEYVFRIRCMKEDGKGYWSDWSEEASGITYEDRPSKAPSFWYKIDPSHTQGYRTVQLVWKTLPPFEANGKILDYEVTLTRWKSHLQNYTVNATKLTVNLTNDRYLATLTVRNLVGKSDAAVLTIPACDFQATHPVMDLKAFPKDNMLWVEWTTPRESVKKYILEWCVLSDKAPCITDWQQEDGTVHRTYLRGNLAESKCYLITVTPVYADGPGSPESIKAYLKQAPPSKGPTVRTKKVGKNEAVLEWDQLPVDVQNGFIRNYTIFYRTIIGNETAVNVDSSHTEYTLSSLTSDTLYMVRMAAYTDEGGKDGPEFTFTTPKFAQGEIE
notes: extracellular domain; Used in the ELISA assays; Bought; also called soluble gp130
[5]
  binding result: no binding
